Source: US20110301104A1, “Transition state structure of orotate phosphoribosyl transferases and uses thereof” (priority 2008, published 2011)

What was measured:
Experiment in all cases: purified protein, by the assay type
[1] = substrate: O=C(O)c1cc(=O)[nH]c(=O)n1[C@@H]1O[C@H](COP(=O)(O)O)[C@@H](O)[C@H]1O; type: biochemical, Plasmodium falciparum; conditions: 25° C., pH 8.0, 25.0 °C
Method: (§1) Expression and Purification of PfOPRT and HsOPRT. The pDEST14 vectors encoding the two OPRT genes were transformed into BL21-AI E. coli competent cells and grown in LB+Amp (100 μg mL^−1) at 37° C. to an OD600 of 0.6. Protein expression was induced by adding 0.02% L-arabinose with overnight growth at 37° C. Cells were harvested by centrifugation at 4° C., weighted and resuspended in lysis buffer (20 mM Tris-HCl, 500 mM NaCl and 5 mM Imidazole, pH=7.9, 3 mL/gram cell pellet). Lysozyme (100 μg mL^−1), DNase I (10 μg mL^−1) and protease inhibitor (1 tablet/8 grams of cells) (Roche Applied Science, Indianapolis, Ind.) were added to the solution. Following disruption in a French Press, cell lysate was centrifuged at 30,000 g for […] at 4° C. […] The 6×His-OPRTs were eluted with a gradient of imidazole (20 mM ˜500 mM). The OPRT bands were visualized on SDS-PAGE gels and fractions with high purity were pooled, made to 10% glycerol and 10 mM β-ME (final concentration), concentrated and dialyzed overnight at 4° C. to remove imidazole. His-tags were removed during dialysis by the presence of thrombin (1 unit/0.1 mg). His-tag free OPRTs were purified by Superdex 200 26/60 Gel filtration column, concentrated and stored at −80° C. […] Reactions were monitored by the absorbance increase at 295 nm to give an extinction coefficient of 3.67 mM^−1 cm^−1.

[2] = substrate: O=C(O)CP(=O)(O)O; type: biochemical, Plasmodium falciparum; conditions: other: PA as slow substrate
Method: as §1

[3] = substrate: O=C(O)c1cc(=O)[nH]c(=O)n1[C@@H]1O[C@H](COP(=O)(O)O)[C@@H](O)[C@H]1O; type: biochemical, human; conditions: 25° C., pH 8.0
Method: as §1

[4] = substrate: O=C(O)CP(=O)(O)O; conditions: other: PA as slow substrate
[5] = other: OMP with PA (20 mM) as substrate
[6] = other: OMP with PPi (1 mM) as substrate

Protein	Km [1, 5] [µM]	kcat [1, 5] [s⁻¹]	kcat/Km [1, 5] [M⁻¹ s⁻¹]	Km [1, 6] [µM]	kcat [1, 6] [s⁻¹]	kcat/Km [1, 6] [M⁻¹ s⁻¹]	Km [2] [µM]	kcat [2] [s⁻¹]	Km [3, 5] [µM]	kcat [3, 5] [s⁻¹]	kcat/Km [3, 5] [M⁻¹ s⁻¹]	Km [3, 6] [µM]	kcat [3, 6] [s⁻¹]	kcat/Km [3, 6] [M⁻¹ s⁻¹]	Km [4] [µM]	kcat [4] [s⁻¹]
PfOPRT (Plasmodium falciparum 3D7) (protein, His6 (thrombin-cleavable) (N, cleaved yes); made in house; host or cells: E. coli BL21-AI) MTTIKENEFLCDEEIYKSFVHLKDKICEERKKKELVNNNIDNVNFNDDDDNNYDDDGNSYSSYIKEMKKLLKVVLLKYKALKFGEFILKSKRKSNYFFSSGVLNNIVSSNIICFLLSELILKNKLSFDYLLGASYKGIPMVSLTSHFLFESKKYSNIFYLYDRKEKKEYGDKNVIVGNLDDDDKDILNLKKKTKNNQDEEKKNIIIIDDVFTCGTALTEILAKLKTYEHLKVVAFIVLLNRNEYEINENNQKIYFKDIFEKRVGIPLYSILSYKDDIQSMI	2.90 ± 1.09	0.014 ± 0.002	4800	3.73 ± 1.36	1.96 ± 0.29	530000	1590	0.023	–	–	–	–	–	–	–	–
HsOPRT (Homo sapiens) (protein, This HsUMPase truncation construct only expresses its HsOPRT domain; His6 (thrombin-cleavable) (N, cleaved yes); made in house; host or cells: E. coli BL21-AI) MAVARAALGPLVTGLYDVQAFKFGDFVLKSGLSSPIYIDLRGIVSRPRLLSQVADILFQTAQNAGISFDTVCGVPYTALPLATVICSTNQIPMLIRRKETKDYGTKRLVEGTINPGETCLIIEDVVTSGSSVLETVEVLQKEGLKVTDAIVLLDREQGGKDKLQAHGIRLHSVCTLSKMLEILEQQKKVDAETVGRVKRFIQENVFVAANHNGSPLSIKEAPKELSFGARAELPRIHPVASKLLR	–	–	–	–	–	–	–	–	2.14 ± 0.61	0.017 ± 0.002	7900	1.55 ± 0.61	0.10 ± 0.01	65000	3840	0.017
